This experiment concerns the target Myosin-5a (Mus musculus, UniProt Q99104). In words: ATPase activity assay.

Myosin-5a, sequence (Q99104 2-1853): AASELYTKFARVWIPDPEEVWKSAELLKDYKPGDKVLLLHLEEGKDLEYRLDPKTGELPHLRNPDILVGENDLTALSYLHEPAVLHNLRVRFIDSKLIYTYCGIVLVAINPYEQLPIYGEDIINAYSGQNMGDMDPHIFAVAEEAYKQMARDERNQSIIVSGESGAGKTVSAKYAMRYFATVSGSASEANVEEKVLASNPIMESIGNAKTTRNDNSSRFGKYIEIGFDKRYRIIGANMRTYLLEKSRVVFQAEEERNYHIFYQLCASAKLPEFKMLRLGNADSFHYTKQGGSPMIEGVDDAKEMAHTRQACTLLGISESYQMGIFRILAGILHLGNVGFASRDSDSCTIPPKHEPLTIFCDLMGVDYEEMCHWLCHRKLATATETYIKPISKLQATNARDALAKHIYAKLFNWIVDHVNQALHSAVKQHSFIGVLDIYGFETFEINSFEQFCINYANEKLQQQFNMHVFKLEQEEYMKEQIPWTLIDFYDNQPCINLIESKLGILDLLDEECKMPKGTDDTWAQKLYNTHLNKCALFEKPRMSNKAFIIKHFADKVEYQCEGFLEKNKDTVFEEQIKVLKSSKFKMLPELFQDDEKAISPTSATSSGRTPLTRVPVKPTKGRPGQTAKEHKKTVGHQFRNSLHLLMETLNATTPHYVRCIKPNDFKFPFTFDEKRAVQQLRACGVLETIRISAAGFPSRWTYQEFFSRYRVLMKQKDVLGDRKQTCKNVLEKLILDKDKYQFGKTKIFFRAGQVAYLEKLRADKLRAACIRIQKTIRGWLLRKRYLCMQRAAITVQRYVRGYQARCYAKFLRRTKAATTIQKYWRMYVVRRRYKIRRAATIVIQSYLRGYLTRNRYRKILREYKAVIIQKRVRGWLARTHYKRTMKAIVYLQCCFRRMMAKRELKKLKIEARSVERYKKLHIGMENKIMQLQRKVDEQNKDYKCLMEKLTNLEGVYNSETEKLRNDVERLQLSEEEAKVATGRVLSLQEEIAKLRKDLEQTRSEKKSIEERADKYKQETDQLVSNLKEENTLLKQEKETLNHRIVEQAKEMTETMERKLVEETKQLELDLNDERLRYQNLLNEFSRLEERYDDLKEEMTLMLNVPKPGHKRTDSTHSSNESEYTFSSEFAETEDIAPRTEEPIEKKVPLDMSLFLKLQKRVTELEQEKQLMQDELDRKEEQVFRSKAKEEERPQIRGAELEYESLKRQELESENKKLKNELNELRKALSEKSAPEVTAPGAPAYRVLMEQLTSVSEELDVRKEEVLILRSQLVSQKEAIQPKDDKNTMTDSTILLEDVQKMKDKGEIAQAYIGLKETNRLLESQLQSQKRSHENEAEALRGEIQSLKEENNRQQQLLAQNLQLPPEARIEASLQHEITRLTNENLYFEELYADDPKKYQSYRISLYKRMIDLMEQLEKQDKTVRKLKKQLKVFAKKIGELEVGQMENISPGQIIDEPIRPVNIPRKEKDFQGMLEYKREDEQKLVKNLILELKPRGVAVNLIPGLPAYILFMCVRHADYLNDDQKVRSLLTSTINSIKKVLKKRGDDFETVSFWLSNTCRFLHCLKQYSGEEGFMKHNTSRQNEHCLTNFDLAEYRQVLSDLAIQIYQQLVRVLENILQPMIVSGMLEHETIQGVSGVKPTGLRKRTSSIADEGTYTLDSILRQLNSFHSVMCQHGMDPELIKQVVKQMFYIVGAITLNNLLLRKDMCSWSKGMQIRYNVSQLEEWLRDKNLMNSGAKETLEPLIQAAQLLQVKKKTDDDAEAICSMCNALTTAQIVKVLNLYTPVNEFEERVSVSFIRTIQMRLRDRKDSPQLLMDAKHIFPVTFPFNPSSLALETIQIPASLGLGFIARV

The Kd is the constant that tells how readily two partners part at equilibrium. Read a low Kd as higher affinity. RDQPLNSKKKKRLLSFRDVDFEEDSD [Melanophilin GTBDP] showed a Kd of 19.8 µM. This counts as double-digit micromolar.

The values are drawn from article PMC4454200 (2015).
